Square brackets hold non-standard residues; d marks the D form. Peptide text beside a SMILES is read from it. * marks the point of attachment. Dolaproine = CO[C@@H]([C@@H]1CCCN1)[C@@H](C)C(=O)O; Dil = CC[C@H](C)[C@H](NC)[C@@H](CC(=O)O)OC; X1 = C[C@@H](N*)[C@@H](O)c1ccccc1; NMeV = CN[C@H](C(=O)O)C(C)C
Experiments:
hTERT HPNE = test: Growth inhibitory response to serially diluted MMAE, normal pancreatic cell line; type: cell-based; conditions: serially diluted MMAE (FIG. 10)
[1] = Int J Mol Sci. 21 (9): 3286 (2020); cited from earlier work
BxPc-3 and Mia PaCa-2 [2] = test: Scratch wound healing assay (FIG. 5C); type: cell-based, human; conditions: after 36 and 72 h of treatment with scFv
Description: (§1) PAAD cells were seeded at 5×10^4 cells/well in a 24-well Transwell cell migration plate (Corning) and incubated with scFv for 2 days. In the assay, recombinant ephrin-A1 (Sino Biological) was added as a positive control. After scFv treatment, the cells were fixed with frozen 100% methanol for 10 min and stained with 0.01% crystal violet for 1 h at room temperature. After the pate was washed with ddH2O, the upper-layer cells were removed using cotton swabs. Cell staining was imaged using a microscope and analyzed using ImageJ. For the scratch wound healing assay, PAAD cells were seeded in a 6-well culture plate. The seeded cells in the well were scratched with a pipette tip to simulate a wound. After treatment with scFv and incubation for 36 or 72 h, the cells were imaged using a microscope. The wound areas were analyzed using ImageJ.
(§2) For the scratch wound healing assay, PAAD cells were seeded in a 6-well culture plate. The seeded cells in the well were scratched with a pipette tip to simulate a wound. After treatment with scFv and incubation for 36 or 72 h, the cells were imaged using a microscope. The wound areas were analyzed using ImageJ.

Panc-1 [3] = test: Transwell migration assay, Panc-1; type: cell-based, human; conditions: Panc-1, transwell migration assay (FIG. 5B)
Description: as §1

EphA2 [4] = target: T1, EphA2 (Homo sapiens, UniProt P29317); test: Western blotting under reducing (SDS-PAGE) and non-reducing (Native-PAGE) conditions; type: binding; conditions: Native-PAGE vs SDS-PAGE (FIG. 3D)
T1 sequence (P29317 24-976): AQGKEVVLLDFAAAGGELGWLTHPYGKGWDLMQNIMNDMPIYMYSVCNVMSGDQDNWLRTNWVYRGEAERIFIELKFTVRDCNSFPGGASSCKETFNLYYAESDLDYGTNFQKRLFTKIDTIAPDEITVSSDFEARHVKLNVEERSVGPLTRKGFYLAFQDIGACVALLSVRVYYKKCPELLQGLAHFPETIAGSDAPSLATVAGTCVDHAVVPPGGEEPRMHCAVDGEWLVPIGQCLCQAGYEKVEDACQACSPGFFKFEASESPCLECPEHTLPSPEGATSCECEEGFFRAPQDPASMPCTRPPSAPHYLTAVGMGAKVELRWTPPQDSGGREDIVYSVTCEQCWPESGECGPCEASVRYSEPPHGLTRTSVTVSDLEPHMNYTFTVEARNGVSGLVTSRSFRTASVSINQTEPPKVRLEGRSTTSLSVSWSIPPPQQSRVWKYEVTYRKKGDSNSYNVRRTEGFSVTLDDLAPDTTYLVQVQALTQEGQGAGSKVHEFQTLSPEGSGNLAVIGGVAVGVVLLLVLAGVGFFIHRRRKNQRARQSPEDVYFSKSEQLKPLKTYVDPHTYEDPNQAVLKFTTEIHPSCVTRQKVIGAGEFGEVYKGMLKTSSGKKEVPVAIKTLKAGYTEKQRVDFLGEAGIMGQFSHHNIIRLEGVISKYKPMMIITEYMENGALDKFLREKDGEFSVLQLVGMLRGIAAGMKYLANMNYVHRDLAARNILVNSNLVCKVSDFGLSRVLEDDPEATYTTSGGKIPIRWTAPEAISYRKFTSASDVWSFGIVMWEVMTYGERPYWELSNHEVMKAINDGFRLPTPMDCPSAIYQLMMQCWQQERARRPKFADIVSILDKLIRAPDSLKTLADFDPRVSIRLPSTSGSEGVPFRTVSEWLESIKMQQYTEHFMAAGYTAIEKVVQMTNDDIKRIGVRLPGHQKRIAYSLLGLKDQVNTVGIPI
Description: The recombinant EphA2 protein was transferred onto nitrocellulose membranes (GE Healthcare Life Sciences) after electrophoresis using sodium dodecyl sulfate-polyacrylamide gel (SDS-PAGE) or nativepolyacrylamide gel (Native-PAGE), and the membranes were incubated with using purified scFv antibodies to determine binding reactivity. The membranes were blocked with 5% skim milk and then incubated with scFv at room temperature for 1 h. After washing with PBST, the membranes were detected and developed using HRP-conjugated goat anti-chicken light chain antibodies. Finally, the 3,3′-diaminobenzidine substrate was added for color development until the desired color intensity was reached.

BxPc-3 [5] = test: Transwell migration assay, BxPc-3; type: cell-based, human; conditions: BxPc-3, transwell migration assay (FIG. 5B)
Description: as §1

AsPc-1 = test: MTS cell proliferation assay, AsPc-1; type: cell-based, human; set-up: dose or concentration left out as unconfirmed; conditions: AsPc-1, MTS, Day 5, scFv
Description: (§3) PAAD cell proliferation was measured using a 3-(4,5-dimethylthiazol-2-yl)-5-(3-carboxymethoxyphenyl)-2-(4-sulfophenyl)-2H-tetrazolium (MTS) Cell Proliferation Assay Kit (Promega). The cells were seeded in a 96-well culture plate at a density of 5000 cells/well for attachment. Then, scFv at various concentrations was added to the cell culture and incubated for 5 days. Finally, MTS and phenazine methosulfate solutions were added and incubated for 90 min for development. After the SDS reagent was added to stop the reaction, the absorbance of each well was measured by determining the OD at 490 nm.

Mia PaCa-2 [6] = test: Scratch wound healing assay, Mia PaCa-2; type: cell-based, human; conditions: Mia PaCa-2, wound healing assay (FIG. 5D)
Description: as §1, §2

[7] = target: T2, endogenous EphA2 molecules on 4 pancreatic cancer cell lines (AsPc-1, BxPc-3, Panc-1, Mia PaCa-2) (Homo sapiens, UniProt P29317); test: Flow cytometry binding on pancreatic cancer cells; conditions: 4 PAAD cell lines (FIG. 3E)
T2 construct: with endogenous EphA2 molecule expression; endogenous in cells; host or cells: AsPc-1, BxPc-3, Panc-1, Mia PaCa-2
T2 sequence (P29317 24-976): as above
Description: Four PAAD cells AsPc-1, BxPc-3, Panc-1, and Mia PaCa-2 with endogenous EphA2 molecule expression, were analyzed through flow cytometry to determine the binding reactivity of indicated scFvs. Freshly prepared cancer cells were harvested and washed twice with PBS. Then, individual scFv was added and incubated at room temperature for 1 h. Bound scFv was visualized using goat anti-chicken light chain antibodies and donkey anti-goat antibodies conjugated with fluorescein isothiocyanate (FITC; Jackson ImmunoResearch Laboratories). An irrelevant scFv was used as the negative control, and commercially available goat anti-EphA2 antibodies were used as the positive control (R&D Systems) in the assay. The results were analyzed using a FACS can flow cytometer (BD Biosciences, Systems and Reagents).

BxPc-3 and Mia PaCa-2 [8] = test: Transwell migration assay (FIG. 5A); type: cell-based, human; set-up: dose or concentration left out as unconfirmed; conditions: scFv for 2 days
Description: as §1

[9] = target: T3, natural EphA2 molecule in the lysate of 4 pancreatic cancer cell lines (Homo sapiens, UniProt P29317); test: Immunoprecipitation (pull down) from PAAD cell lysates; type: binding; conditions: lysates of four PAAD cell lines (FIG. 3F)
T3 construct: with endogenous EphA2 molecule expression; endogenous in cells; host or cells: AsPc-1, BxPc-3, Panc-1, Mia PaCa-2
T3 sequence (P29317 24-976): as above
Description: For the immunoprecipitation assay, 300 μg of each PAAD cell lysate was incubated with 50 μg of antiEphA2 scFv (scFv was fused with a His tag) at 4° C. overnight. On the next day, 30 μL of Ni^2+-charged sepharose was added to the mixture and incubated for 1 h at 4° C. After three rounds of washing with NiNTA wash buffer (50 mM NaH2PO4, 300 mM NaCl, and 10 mM imidazole, pH 8.0), the scFv-bound sepharose beads were resuspended in 50 μL of PBS buffer. Subsequently, the sepharose solution was denatured at 95° C. for 10 min and analyzed using SDS-PAGE. After the proteins were transferred to a polyvinylidene fluoride membrane, the membrane was detected using the anti-EphA2 antibody (R&D Systems) and anti-His (Proteintech Group) antibody at 4° C. overnight. On the next day, after washing with PBST, the membrane was incubated with HRP-conjugated secondary antibody (Jackson ImmunoResearch Laboratories). Finally, the chemiluminescence substrate was added for luminal signal detection.

Mia PaCa-2 [10] = test: MTS cell proliferation assay, Mia PaCa-2; type: cell-based, human; set-up: dose or concentration left out as unconfirmed; conditions: Mia PaCa-2, MTS, Day 5, scFv
Description: as §3

Panc-1 [11] = test: MTS cell proliferation assay, Panc-1; type: cell-based, human; set-up: dose or concentration left out as unconfirmed; conditions: Panc-1, MTS, Day 5, scFv
Description: as §3

BxPc-3 [12] = test: Scratch wound healing assay, BxPc-3; type: cell-based, human; conditions: BxPc-3, wound healing assay (FIG. 5D)
Description: as §1, §2

BxPc-3 [13] = test: MTS cell proliferation assay, BxPc-3; type: cell-based, human; set-up: dose or concentration left out as unconfirmed; conditions: BxPc-3, MTS, Day 5, scFv
Description: as §3

[14] = system: other Eph family proteins (EphA1-A8); test: Flow cytometry binding specificity on 293T cells overexpressing EphA molecules: other family proteins; conditions: cells overexpressing EphA1-A8 (FIG. 6A)
Description: (§4) To detect the binding specificity of scFv, 293T cells were transformed with EphA1-A8 plasmids individually for overexpression of different EphA molecules. The cell line was freshly prepared and washed with FACS buffer (2% FBS in PBS). The cells were seeded at 1×10^5 cells/well into a 96-well Ubottom plate and incubated with scFv for 1 h at 4° C. After the plate was washed with FACS buffer, the anti-hemagglutinin (HA) antibody was added for scFv binding detection (scFv was fused with a HA tag) and subsequently developed using an FITC-conjugated secondary antibody. Finally, the cell binding signal was analyzed using a FACS can flow cytometer.

HuCCT1, ssp-25, RBE, TFK = test: MTS growth inhibition, cholagiocarcinoma cells; type: cell-based; set-up: dose or concentration left out as unconfirmed; conditions: four cell lines HuCCT1, ssp-25, RBE, Day 5
Description: The growth inhibitory effect of hSD5 scFv on the four strains of cholagiocarcinoma cells was tested under different concentrations. At indicated concentrations, hSD5 scFv interacted with the cancer cells for 5 days, and the effects on the growth of cancer cells were observed by MTS assay. (FIG. 17C)

[15] = system: BxPc-3 and Mia PaCa-2 cells; test: Molecule signaling by Western blotting; type: cell-based, human
Description: […] The cells were collected and lysed using lysis buffer [50 mM Tris-HCl (pH 7.5), 50 mM NaCl, 5 mM ethylenediaminetetraacetic acid, and 1% Triton X-100], and a mixture of proteinase inhibitors (Roche Applied Science) was added. The protein concentration of the cell lysate was measured through the Coomassie Plus (Bradford) Protein Assay (Thermo Fisher Scientific). Samples were run on reducing SDS-PAGE for Western blotting analysis and were detected using antibodies against p-EphA2, EphA2, p-AKT, AKT, p-ERK, ERK, p-FAK, FAK, pSTAT3, STAT3 (Cell Signaling Technology), and β-actin (GeneTex).

EphA2 [16] = target: T1, EphA2; test: Flow cytometry binding specificity on 293T cells overexpressing EphA molecules: EphA2; set-up: expressed in transfected cells; host or cells: 293T; conditions: flow cytometry (FIG. 6A)
Description: as §4

In the case of CC[C@H](C)[C@@H]([C@@H](CC(=O)N1CCC[C@H]1[C@H](OC)[C@@H](C)C(=O)N[C@H](C)[C@@H](O)c1ccccc1)OC)N(C)C(=O)[C@@H](NC(=O)[C@@H](NC)C(C)C)C(C)C [MMAE, Monomethyl auristatin E] (H-[NMeV]V[Dil][Dolaproine]-X1), the “growth inhibition of normal pancreatic cell line” value (hTERT HPNE) is listed as “only mild effect” and the “potency relative to doxorubicin” value [1] is listed as 100-1000 times.

B1: scFv SD5: chicken derived anti-EphA2 scFv, SEQ ID NO: 11 (light chain SEQ ID NO: 7, heavy chain SEQ ID NO: 9) (protein)
scFv: LTQPSSVSANLGETVKIPCSGSSGSYGWYQQKSPGSAPVTLIYDNDKRPSDIPSRFFGSTSGSTSTLTITGVQAEDEAVYFCGSADSSTYVGMFGAGTTLTVLGQSSRSSTVTLDESGGGLQTPGGGLSLVCKASGFTFSDYGMGWVRQAPGKGLEFVAGISAAGSFTPYGAAVKGRATISRDNGQSTVRLQLNNLRSEDTGIYYCARIPSGYRAGEIYTWGQGTEVIVSS
With B1 the “migration of cancer cells in wound healing assay” value (BxPc-3 and Mia PaCa-2 [2]) was “inhibited the migration of cancer cells”, the migration inhibition (Panc-1 [3]) was 65% and the “recognition of EphA2 protein in native and denatured form” value (EphA2 [4]) was “can recognize EphA2 in the native form, but not in the denatured form”. For the same molecule, the migration inhibition (BxPc-3 [5]) was 91%, the growth inhibition (AsPc-1) was “approximately 80%” and the migration inhibitory effect (Mia PaCa-2 [6]) was 65%. The “binding response to EphA2 molecules on cancer cells” value [7] was “significant binding response”, the “number of migrated cancer cells” value (BxPc-3 and Mia PaCa-2 [8]) was “reduced effectively” and the “pull down of EphA2 from cell lysates” value [9] was “captured free EphA2 molecules”. The growth inhibition (Mia PaCa-2 [10]) was “approximately 80%”, the growth inhibition (Panc-1 [11]) was “approximately 80%” and the migration inhibitory effect (BxPc-3 [12]) was 67%. It also gave a growth inhibition (BxPc-3 [13]) of 58.5%.

B2: scFv hSD5: humanized anti-EphA2 scFv, SEQ ID NO: 12 (light chain SEQ ID NO: 8, heavy chain SEQ ID NO: 10) (protein)
scFv: LTQPPSVSVSPGQTVRITCSGSSGSYGWYQQKSPGQAPVTLIYDNDKRPSGIPERFSGSSSGSTSTLTISGVQAEDEADYYCGSADSSTYVGMFGGGTKLTVLGQSSRSSQVQLVESGGGLVQPGGSLRLSCAASGFTFSDYGMGWVRQAPGKGLEWVAGISAAGSFTPYGAAVKGRFTISRDNSKNTVYLQMNSLRAEDTAVYYCARIPSGYRAGEIYTWGQGTLVTVSS
With B2 the “cross-binding to other Eph family proteins” value [14] was “does not exhibit cross-binding reactions”, the growth inhibition (HuCCT1, ssp-25, RBE, TFK) was 40%-70% and the “LAMP1 and LAMP2 levels” value ([15]; 6 h after administration of scFv (FIG. 6C)) was “upregulated levels”. The EphA2 degradation ([15]; 6 h after administration of scFv, dose-dependent (FIG. 6C)) was “degraded EphA2 molecules”, the EphA2 level ([15]; 24 hours treatment (FIG. 6D)) was “almost completely degraded” and the “amount of pEphA2” value ([15]; 24 hours treatment (FIG. 6D)) was “decreased”. The “pSTAT3 and pFAK signals” value ([15]; 24 hours treatment (FIG. 6D)) was “dose-dependent decrease” and the “binding to cells overexpressing EphA2” value (EphA2 [16]) was “specifically binds to EphA2 molecules”.

From patent publication US20250340655A1, “EPHA2-TARGETING ANTIBODIES AND THEIR APPLICATIONS IN CANCER TREATMENT” (TAIPEI MEDICAL UNIVERSITY, priority 2022, published 2025)
